Assay results reported in doi:10.1101/2025.09.09.675230.

Biological target: Measles virus fusion protein (F) ectodomain, prefusion-stabilized with E170G and E455G (FECT 2M) (Measles virus strain Ichinose-B95a)
Experiment: cryo-EM structure

With “Measles virus fusion protein (F) ectodomain, prefusion-stabilized with E170G and E455G (FECT 2M) (domain or fragment)” as the substance, how does the stoichiometry N read?
Its stoichiometry N is 3.
